For data set [1], the system named is VV-GMCSF-Lact intact vaccinia virus particles (surface protein target not identified) (Vaccinia virus, LIVP strain (recombinant VV-GMCSF-Lact)). Put plainly: MST.
For data set [2] the test system is unchanged. Put plainly: flow cytometry. Background: In flow cytometry, cells or beads pass a laser one at a time.

In general, Kd refers to the concentration at which binding is half-saturated. For “GTAACCAGCCATCACCCTATTATCTCATTATCTCGTTTTCCCTATGCGGCATAGG [NV14t_56 (8NV37_14 variant 2_12-67)]”, in data set [1], the K half is 1.49e+09 PFU/mL. Further, in data set [2], the equilibrium dissociation constant (Kd) was found to be 353 nM.

The record behind these values is publication PMC10892425.
